The values that follow come from US20030073218.

This data set concerns RR-Src peptide.

Take “GST-XD4 (glutathione S-transferase fusion of the XD4 fragment of v-Src, wild-type catalytic domain)”: the KM (mM) for protein substrate RR-Src, ATP saturated is 2.6 mM. As to GST-XD4(V323A, I338A), the KM (mM) for protein substrate RR-Src, ATP saturated came out at 3.1 mM and the KM (mM) for protein substrate RR-Src, N^6-(cyclopentyl)ATP saturated stood at 2.1 mM.
